Drawing on publication PMC7539009, “Mechanism and evolution of the Zn-fingernail required for interaction of VARP with VPS29” (Nature Communications, 2020), this text covers Kd for two molecules.

In general, Kd refers to the equilibrium constant for the complex coming apart. A low value points to higher affinity.

The target of assay [1] is long VPS29 (isoform with the N-terminal sequence …) (UniProt Q9UBQ0-2 1-186). Put plainly: SPR; Biacore T200; GST fusion captured on goat anti-GST antibody coupled to a CM5 chip, GST-CLA on the blank flow cell; VPS29 as analyte, typically 40 to 0.3 μM; 20 mM Tris, 200 mM NaCl, 0.1 mM TCEP, 0.5 μM ZnCl2, pH 7.4; 12 °C for the KD of 2–3 µM; equilibrium and kinetic analysis, single site. Conditions: both partners purified. (In SPR one partner is held on a chip, and binding of the other changes the refractive index at the surface.)

In assay [2] the target is VPS29 (short isoform, N-terminal sequence MLVL), untagged (UniProt Q9UBQ0-1 1-182). Described as above. Conditions: both partners purified.

B1: GST-TBC1D5 (residues 132–156) (domain or fragment)
chain: GQQDLMINNPLSQDEGSLWNKFFQD
notes: TBC1D5 residues 132-156, holds the Asn Pro Leu motif and the short helix upstream of it; also called TBC1D5 (132–156); not shown: GST, N-terminal, kept
Regarding B1, the results for the dissociation constant (Kd) in assay [1] and in assay [2] were around 67 µM and above 300 µM, respectively.

B2: GST-VARP residues 692-746, 4C mutant (all four Cys to Ser) (domain or fragment)
chain: TEEDLEDAEDTVSAADPEFSHPLSQSPKSAPAQKRLAKVPASGLGVNVTSQDGSSW
notes: non-native Trp residue numbered 747; source: E. coli BL21 (DE3) pLysS, pGEX6P1, purified (GST-Sepharose, S75 Superdex gel filtration); not shown: GST, N-terminal, kept
In assay [2], B2 returned a dissociation constant (Kd) of 55 µM.
